Measured values published in USRE47150 (Bayer, dated 2018).

T1: human tissue factor pathway inhibitor (TFPI) (human, UniProt P10646 29-304, limits assumed)
T1 construct: bought; also called hTFPI; human TFPI
T1 sequence (looked up): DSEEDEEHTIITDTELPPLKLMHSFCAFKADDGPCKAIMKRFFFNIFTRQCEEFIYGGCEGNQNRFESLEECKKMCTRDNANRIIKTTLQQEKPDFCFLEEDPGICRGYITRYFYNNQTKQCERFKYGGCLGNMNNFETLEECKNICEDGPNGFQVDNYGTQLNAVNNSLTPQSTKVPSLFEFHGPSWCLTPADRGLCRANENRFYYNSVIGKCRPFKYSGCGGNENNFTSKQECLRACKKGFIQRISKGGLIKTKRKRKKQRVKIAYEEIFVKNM

T2: mouse tissue factor pathway inhibitor (TFPI) (mouse, UniProt O54819 29-289, limits assumed)
T2 construct: bought; also called mTFPI; murine TFPI
T2 sequence (looked up): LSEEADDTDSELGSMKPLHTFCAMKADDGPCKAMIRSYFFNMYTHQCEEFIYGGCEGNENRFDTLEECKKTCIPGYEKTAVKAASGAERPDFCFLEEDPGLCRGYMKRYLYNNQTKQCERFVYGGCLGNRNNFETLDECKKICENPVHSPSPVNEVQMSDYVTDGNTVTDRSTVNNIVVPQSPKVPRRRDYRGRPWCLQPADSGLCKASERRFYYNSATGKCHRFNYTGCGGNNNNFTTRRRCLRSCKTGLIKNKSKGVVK


Legend:
Experiment in all cases: competitive ELISA
[1] = target: T1, human tissue factor pathway inhibitor …
[2] = target: T2, mouse tissue factor pathway inhibitor …
[3] = target: T1, human tissue factor pathway inhibitor …; remark: listed apart in the source
[4] = target: T2, mouse tissue factor pathway inhibitor …; remark: listed apart in the source

Binder | variant/HC_D62R [1] | variant/HC_D62R [2] | variant/HC_K99L [3] | variant/HC_K99L [4]
2A8 HC G33A+S35D+S55R+K99L/LC Y48F+N51V+D91W (Fab, V domains shown) VH: QVQLVESGGGLVQPGGSLRLSCAASGFTFRSYAMDWVRQAPGKGLEWVSSIRGSRSSTYYADSVKGRFTISRDNSKNTLYLQMNSLRAEDTAVYYCARLYRYWFDYWGQGTLVTVSS VL: DIELTQPPSVSVAPGQTARISCSGDNLRNYYAHWYQQKPGQAPVVVIFYDVNRPSGIPERFSGSNSGNTATLTISGTQAEDEADYYCQSWWDGVPVFGGGTKLTVLG |  |  | 16 ratio | 14.7 ratio
2A8 HC M34K+S35D+S55R+K99L/LC Y48F+N51V+D91W (Fab, V domains shown) VH: QVQLVESGGGLVQPGGSLRLSCAASGFTFRSYGKDWVRQAPGKGLEWVSSIRGSRSSTYYADSVKGRFTISRDNSKNTLYLQMNSLRAEDTAVYYCARLYRYWFDYWGQGTLVTVSS VL: DIELTQPPSVSVAPGQTARISCSGDNLRNYYAHWYQQKPGQAPVVVIFYDVNRPSGIPERFSGSNSGNTATLTISGTQAEDEADYYCQSWWDGVPVFGGGTKLTVLG |  |  | 11.2 ratio | 11.6 ratio
2A8 HC Q1E+S35D+S55R+K99L/LC Y48F+N51V+D91W (Fab, V domains shown) VH: EVQLVESGGGLVQPGGSLRLSCAASGFTFRSYGMDWVRQAPGKGLEWVSSIRGSRSSTYYADSVKGRFTISRDNSKNTLYLQMNSLRAEDTAVYYCARLYRYWFDYWGQGTLVTVSS VL: DIELTQPPSVSVAPGQTARISCSGDNLRNYYAHWYQQKPGQAPVVVIFYDVNRPSGIPERFSGSNSGNTATLTISGTQAEDEADYYCQSWWDGVPVFGGGTKLTVLG |  |  | 20.9 ratio | 20.3 ratio
2A8 HC R30S+S31V+I51D+S55R+K99V/LC Y48F+D91L+V96W (Fab, V domains shown) VH: QVQLVESGGGLVQPGGSLRLSCAASGFTFSVYGMSWVRQAPGKGLEWVSSDRGSRSSTYYADSVKGRFTISRDNSKNTLYLQMNSLRAEDTAVYYCARVYRYWFDYWGQGTLVTVSS VL: DIELTQPPSVSVAPGQTARISCSGDNLRNYYAHWYQQKPGQAPVVVIFYDNNRPSGIPERFSGSNSGNTATLTISGTQAEDEADYYCQSWLDGVPWFGGGTKLTVLG |  |  | 13.5 ratio | 6.5 ratio
2A8 HC Q1E+R30S+S35D+S55R+S56G+K99L/LC Y48F+N51V+D91W (Fab, V domains shown) VH: EVQLVESGGGLVQPGGSLRLSCAASGFTFSSYGMDWVRQAPGKGLEWVSSIRGSRGSTYYADSVKGRFTISRDNSKNTLYLQMNSLRAEDTAVYYCARLYRYWFDYWGQGTLVTVSS VL: DIELTQPPSVSVAPGQTARISCSGDNLRNYYAHWYQQKPGQAPVVVIFYDVNRPSGIPERFSGSNSGNTATLTISGTQAEDEADYYCQSWWDGVPVFGGGTKLTVLG |  |  | 11.9 ratio | 9.3 ratio
2A8 HC Q1E+S31V+S50A+I51D+S55R+S56G+K99V/LC Y48F+D91L+V96W (Fab, V domains shown) VH: EVQLVESGGGLVQPGGSLRLSCAASGFTFRVYGMSWVRQAPGKGLEWVSADRGSRGSTYYADSVKGRFTISRDNSKNTLYLQMNSLRAEDTAVYYCARVYRYWFDYWGQGTLVTVSS VL: DIELTQPPSVSVAPGQTARISCSGDNLRNYYAHWYQQKPGQAPVVVIFYDNNRPSGIPERFSGSNSGNTATLTISGTQAEDEADYYCQSWLDGVPWFGGGTKLTVLG |  |  | 12.1 ratio | 7.7 ratio
2A8 HC Q1E+R30S+S35D+S55G+S56G+K99L/LC Y48F+D91L+V96W (Fab, V domains shown) VH: EVQLVESGGGLVQPGGSLRLSCAASGFTFSSYGMDWVRQAPGKGLEWVSSIRGSGGSTYYADSVKGRFTISRDNSKNTLYLQMNSLRAEDTAVYYCARLYRYWFDYWGQGTLVTVSS VL: DIELTQPPSVSVAPGQTARISCSGDNLRNYYAHWYQQKPGQAPVVVIFYDNNRPSGIPERFSGSNSGNTATLTISGTQAEDEADYYCQSWLDGVPWFGGGTKLTVLG |  |  | 13.6 ratio | 10.6 ratio
2A8 HC I51D+S54F+K99L/LC D91W (Fab, V domains shown) VH: QVQLVESGGGLVQPGGSLRLSCAASGFTFRSYGMSWVRQAPGKGLEWVSSDRGFSSSTYYADSVKGRFTISRDNSKNTLYLQMNSLRAEDTAVYYCARLYRYWFDYWGQGTLVTVSS VL: DIELTQPPSVSVAPGQTARISCSGDNLRNYYAHWYQQKPGQAPVVVIYYDNNRPSGIPERFSGSNSGNTATLTISGTQAEDEADYYCQSWWDGVPVFGGGTKLTVLG |  |  | 6.2 ratio | 5.3 ratio
2A8 HC M34I+S35D+S55R+K99L/LC Y48F+N51V+D91W (Fab, V domains shown) VH: QVQLVESGGGLVQPGGSLRLSCAASGFTFRSYGIDWVRQAPGKGLEWVSSIRGSRSSTYYADSVKGRFTISRDNSKNTLYLQMNSLRAEDTAVYYCARLYRYWFDYWGQGTLVTVSS VL: DIELTQPPSVSVAPGQTARISCSGDNLRNYYAHWYQQKPGQAPVVVIFYDVNRPSGIPERFSGSNSGNTATLTISGTQAEDEADYYCQSWWDGVPVFGGGTKLTVLG |  |  | 19.6 ratio | 18.1 ratio
2A8 HC G33P+S35D+S54F+K99L/LC Y48F+N52G (Fab, V domains shown) VH: QVQLVESGGGLVQPGGSLRLSCAASGFTFRSYPMDWVRQAPGKGLEWVSSIRGFSSSTYYADSVKGRFTISRDNSKNTLYLQMNSLRAEDTAVYYCARLYRYWFDYWGQGTLVTVSS VL: DIELTQPPSVSVAPGQTARISCSGDNLRNYYAHWYQQKPGQAPVVVIFYDNGRPSGIPERFSGSNSGNTATLTISGTQAEDEADYYCQSWDDGVPVFGGGTKLTVLG |  |  | 6.2 ratio | 2.3 ratio
2A8 HC G33P+I51D+S54F/LC Y48F+N51V+V96W (Fab, V domains shown) VH: QVQLVESGGGLVQPGGSLRLSCAASGFTFRSYPMSWVRQAPGKGLEWVSSDRGFSSSTYYADSVKGRFTISRDNSKNTLYLQMNSLRAEDTAVYYCARKYRYWFDYWGQGTLVTVSS VL: DIELTQPPSVSVAPGQTARISCSGDNLRNYYAHWYQQKPGQAPVVVIFYDVNRPSGIPERFSGSNSGNTATLTISGTQAEDEADYYCQSWDDGVPWFGGGTKLTVLG |  |  | 0.6 ratio | 0.4 ratio

Now from value to binder:

variant/HC_D62R [1] | variant/HC_D62R [2] | variant/HC_K99L [3] | variant/HC_K99L [4] | Binder
23 ratio | 9.9 ratio |  |  | 4B7 HC Q1E+N32D+G44S+K55Y+D62R+Y112D/LC V30L+S32R+N35I+T36N (Fab, V domains shown) VH: EVQLQQSGPGLVKPSQTLSLTCAISGDSVSSDSAAWSWIRQSPSRGLEWLGIIYYRSKWYNRYAVSVKSRITINPDTSKNQFSLQLNSVTPEDTAVYYCARWHSDKHWGFDDWGQGTLVTVSS VL: DIVMTQSPLSLPVTPGEPASISCRSSQSLLFRDGINYLNWYLQKPGQSPQLLIYKGSNRASGVPDRFSGSGSGTDFTLKISRVEAEDVGVYYCQQYDSYPLTFGQGTKVEIKR
 |  | 6.6 ratio | 5.9 ratio | 2A8 HC S31V+G33P+I51D+S54F+K99V/LC Y48F+N51V+D91W (Fab, V domains shown) VH: QVQLVESGGGLVQPGGSLRLSCAASGFTFRVYPMSWVRQAPGKGLEWVSSDRGFSSSTYYADSVKGRFTISRDNSKNTLYLQMNSLRAEDTAVYYCARVYRYWFDYWGQGTLVTVSS VL: DIELTQPPSVSVAPGQTARISCSGDNLRNYYAHWYQQKPGQAPVVVIFYDVNRPSGIPERFSGSNSGNTATLTISGTQAEDEADYYCQSWWDGVPVFGGGTKLTVLG
 |  | 11.7 ratio | 7.9 ratio | 2A8 HC S31V+I51D+R52S+S55R+K99V/LC Y48F+D91L+V96W (Fab, V domains shown) VH: QVQLVESGGGLVQPGGSLRLSCAASGFTFRVYGMSWVRQAPGKGLEWVSSDSGSRSSTYYADSVKGRFTISRDNSKNTLYLQMNSLRAEDTAVYYCARVYRYWFDYWGQGTLVTVSS VL: DIELTQPPSVSVAPGQTARISCSGDNLRNYYAHWYQQKPGQAPVVVIFYDNNRPSGIPERFSGSNSGNTATLTISGTQAEDEADYYCQSWLDGVPWFGGGTKLTVLG
 |  | 22.5 ratio | 5.9 ratio | 2A8 HC S31V+G33P+S35D/LC Y48F+D91L+V96W (Fab, V domains shown) VH: QVQLVESGGGLVQPGGSLRLSCAASGFTFRVYPMDWVRQAPGKGLEWVSSIRGSSSSTYYADSVKGRFTISRDNSKNTLYLQMNSLRAEDTAVYYCARKYRYWFDYWGQGTLVTVSS VL: DIELTQPPSVSVAPGQTARISCSGDNLRNYYAHWYQQKPGQAPVVVIFYDNNRPSGIPERFSGSNSGNTATLTISGTQAEDEADYYCQSWLDGVPWFGGGTKLTVLG
 |  | 9 ratio | 4.7 ratio | 2A8 HC S31V+G33A+I51D+S55R+K99V/LC Y48F+D91L+V96W (Fab, V domains shown) VH: QVQLVESGGGLVQPGGSLRLSCAASGFTFRVYAMSWVRQAPGKGLEWVSSDRGSRSSTYYADSVKGRFTISRDNSKNTLYLQMNSLRAEDTAVYYCARVYRYWFDYWGQGTLVTVSS VL: DIELTQPPSVSVAPGQTARISCSGDNLRNYYAHWYQQKPGQAPVVVIFYDNNRPSGIPERFSGSNSGNTATLTISGTQAEDEADYYCQSWLDGVPWFGGGTKLTVLG
 |  | 12.2 ratio | 11.7 ratio | 2A8 HC S31V+G33P+S35D/LC Y48F+N51V+D91L (Fab, V domains shown) VH: QVQLVESGGGLVQPGGSLRLSCAASGFTFRVYPMDWVRQAPGKGLEWVSSIRGSSSSTYYADSVKGRFTISRDNSKNTLYLQMNSLRAEDTAVYYCARKYRYWFDYWGQGTLVTVSS VL: DIELTQPPSVSVAPGQTARISCSGDNLRNYYAHWYQQKPGQAPVVVIFYDVNRPSGIPERFSGSNSGNTATLTISGTQAEDEADYYCQSWLDGVPVFGGGTKLTVLG
 |  | 17.9 ratio | 19.1 ratio | 2A8 HC R30S+S35D+S55R+K99L/LC Y48F+N51V+D91W (Fab, V domains shown) VH: QVQLVESGGGLVQPGGSLRLSCAASGFTFSSYGMDWVRQAPGKGLEWVSSIRGSRSSTYYADSVKGRFTISRDNSKNTLYLQMNSLRAEDTAVYYCARLYRYWFDYWGQGTLVTVSS VL: DIELTQPPSVSVAPGQTARISCSGDNLRNYYAHWYQQKPGQAPVVVIFYDVNRPSGIPERFSGSNSGNTATLTISGTQAEDEADYYCQSWWDGVPVFGGGTKLTVLG
